Tests used:
[1] = tested on: NF-κB signaling; experiment: Inhibition of NF-κB signaling by NO donors; format: cell-based; conditions: summary statement
From the text: SNAP, SNP (nitroprusside) and NOC-18 inhibit NF-κB signaling.

[2] = tested on: NF-κB DNA binding activity; experiment: Electrophoretic mobility shift assay (EMSA) of NF-κB DNA binding activity, A375 cells; format: cell-based, human; conditions: NO donor 100 μM pre-treatment 16 h, Apo2L/TRAIL 100 ng/ml 1 h
Protocol: Electrophoretic mobility shift assay (EMSA). These methods apply generally to FIGS. 5, 9-10 which employ EMSA analysis. In FIG. 5, A375 cells were treated with NO donors (NO-Cbl, NOC-18, SNAP, 100 μM, 16 h), or with Apo2L/TRAIL (100 ng/ml) or TNF-α (20 ng/ml) for 1 h, or with the combination of NO donors (16 h) followed by Apo2L/TRAIL or TNF-α (1 h). Plates were washed twice with ice-cold PBS. Cells were resuspended in cold 1× lysis buffer (20 mM HEPES, 20 mM NaF, 1 mM Na3VO4, 1 mM EDTA, 1 mM DTT, 100 mM NaCl, 10% glycerol and protease inhibitors) and incubated on ice for 30 min followed by centrifugation at 4° C. at 10,000 rpm for 10 min. Supernatants were transferred to fresh tubes and protein concentrations were assessed using the Bradford method (Bio-RAD protein assay, BioRad, Hercules, Calif.). The NF-κB consensus binding sequence (5′[…] 3′) from the IFN-β gene promoter was end-labeled with γ^32P dATP ([…]) using T4 polynucleotide kinase. DNA binding reactions were performed in 20 μl volume containing 10 μg protein, 20 mM HEPES, 10 mM KCl, 0.1% NP-40, 0.5 mM DIT and 10% glycerol. The binding reaction was performed for 20 min at 25° C. Complexes were separated from the free probe on 6% non-denaturing polyacrylamide gels in 0.5×TBE buffer at 200 V for 2 h. Gels were dried and exposed to film.
Inhibition of NF-κB survival signaling by NO-Cbl. Because NF-κB is an important cell survival regulator, we examined the effects of NO-Cbl on NF-κB DNA binding activity. The NF-κB binding sequence from the IFN-β gene promoter was used as a probe to assess DNA binding activity. A375 cells were treated with TNF-α (20 ng/ml), Apo2L/TRAIL (100 ng/ml) or NO-Cbl (100 μM). FIG. 5, illustrates an Electrophoretic Mobility Shift Assay (EMSA) of NF-κB DNA binding activity. Pre-treatment of A375 cells with NO-Cbl inhibited the NF-κB DNA binding activity induced by Apo2L/TRAIL and TNF-α. […] NF-κB-luc transfected A375 cells were pre-treated with NO-Cbl followed by Apo2L/TRAIL or TNF-α. […] Cell lysates were analyzed for NF-κB-luc reporter activity. […]

[3] = tested on: phospho-IκBα in A375 cells; experiment: Western blot analysis of IκBα phosphorylation; format: cell-based, human; conditions: pre-treatment 100 μM, Apo2L/TRAIL 100 ng/ml
Protocol: Gel Electrophoresis and Immunoblot analyses. Please see FIG. 4. Whole cell lysates were prepared in 1× lysis buffer (50 mM Tris-Cl, pH 8.0, 1% Triton×100, 10% glycerol, 1 mM EDTA, 250 mM NaCl, 1 mM DTT, 1 mM PMSF, 10 μg/ml aprotinin, 10 μg/ml leupeptin, and 10 μg/ml pepstatin) for subsequent immunoblotting studies. The SDS-PAGE was conducted by using the Laemmli buffer system and 12% polyacrylamide gels. Proteins were transferred onto PVDF membranes by the semidry method (Trans Blot SD, BioRad, Hercules, Calif.). Binding of the primary and secondary antibodies was performed according to standard protocols. Membranes were immunoblotted with pAb to caspase-3, caspase-8, XIAP (BD-Pharmingen, San Diego, Calif.), PARP (BioMOL, Plymouth Meeting, Pa.), cIAP-1, FLIP, pIκBα and IκBα (Cell Signaling, Beverly, Mass.) followed by incubation with HRP conjugated secondary antibodies (Pierce, Rockford, Ill.). Immunoreactive bands were visualized by using enhanced chemiluminescence (Perkin Elmer, Boston, Mass.). Equal protein loading was confirmed by reprobing with monoclonal anti-actin antibody (Sigma Chemicals Co, St. Louis, Mo.). All immunoblots in this study were repeated 3 times with reproducible results.
NO-Cbl treatment affected the phosphorylation state of IκBα, the prototypic inhibitor of NF-κB. Western blot analysis was performed to assess levels of phospho-IκBα and IκBα. FIG. 6 is a Western blot analysis of IκB levels and IκBα phosphorylation. IκBα and phospho-IκBα protein levels were determined in A375 whole cell lysates. […] NO-Cbl, NOC-18, and SNAP pre-treatment all inhibited Apo2L/TRAIL-induced IκBα phosphorylation.

[4] = tested on: A375 melanoma xenografts; experiment: Growth of subcutaneous A375 xenografts in nude mice; format: in vivo
From the text: In vivo experiments. Please see FIG. 2. The Institutional Animal Care and Use Committee at the Cleveland Clinic Foundation approved all procedures for animal experimentation. Five week-old NCR male athymic nude homozygous (nu/nu) mice (Taconic, Germantown, N.Y.) were inoculated with A375 tumors. Each experimental group contained 4 mice, each mouse bearing two tumors, on opposite flanks. There were four experimental groups (untreated, single agents, and the combination). Cultured tumor cells (4×10^6) were inoculated into flanks in the mid-axillary line. NO-Cbl was given twice daily (50 mg/kg s.c.) and recombinant trimeric Apo2L/TRAIL (50 mg/kg s.c.) was administered every other day, starting on day 2. Tumor volume was measured three times a week using the formula for a prolate spheroid: (4/3) πab^2 where 2a=major axis, 2b=minor axis. Formalin-fixed sections were processed by the Cleveland Clinic Histology Core. Sections were stained with hematoxylin and eosin and evaluated for pathologic changes in a blinded fashion.
Anti-tumor effects of NO-Cbl, Apo2L/TRAIL, and the combination in vivo. To test drug activity in vivo, subcutaneous A375 xenografts were inoculated in nude mice. FIG. 2. illustrates the effect of NO-Cbl, Apo2L/TRAIL and the combination on the growth of A375 melanoma xenografts. NCR male athymic nude (nulnu) mice (n=4 per group) were injected subcutaneously with 4×10^6 A375 cells. Drug treatments began on day two (2) after injection of tumor cells. NO-Cbl was administered twice daily for the duration of the study. Apo2L/TRAIL was administered every other day. The control mice received phosphate buffered saline. The tumor volume was measured three times per week. Data points represent the mean tumor volume (in cubic mm)±SEM. Daily drug treatments began on day 2 following implantation, at which time tumors were both visible and palpable. Untreated control tumors grew unimpeded. After 25 days, the tumors from mice treated with NO-Cbl were 67.4% smaller than the control tumors (p≦0.0002) and tumors from mice treated with Apo2L/TRAIL were 89.4% smaller than the control tumors (p≦0.00001). The tumors from mice treated with the combination of NO-Cbl and Apo2L/TRAIL were 95.7% smaller than the control tumors (p≦0.000005).

[5] = tested on: A375 cells; experiment: TUNEL apoptosis assay; format: cell-based, human; conditions: single agent, 36 h; NO-Cbl 100 μM or Apo2L/TRAIL 100 ng/ml
Protocol: TUNEL assay. Please see FIG. 3. A375 cells were cultured for 36 h and exposed to various treatments (control, NO-Cbl, Apo2L/TRAIL and NO-Cbl+Apo2L/TRAIL. Apoptotic cells were detected by TUNEL (terminal deoxynucleotidyltransferase-mediated dUTP-biotin nick end-labeling) staining using a commercially available kit (APO-BRDU kit, BD-Pharmingen, San Diego, Calif.). Cells were processed according to the manufacturer's recommended protocol. The percentage of FITC-positive cells was analyzed by fluorescent activated cell scanning (FACS, Becton Dickinson, Facsvantage, San Diego, Calif.).
Cell line A375 has a defect in endogenous TRAIL gene induction therefore, additive cellular responses from exogenous TRAIL/Apo2L were avoided. TUNEL assays of A375 cells treated in vitro with NO-Cbl, Apo2L/TRAIL, or the combination were performed. FIG. 3 illustrates a TUNEL apoptosis assay in accordance with the present invention. A375 cells were treated with NO-Cbl, Apo-2L/TRAIL, and the combination. […] The highest levels of apoptosis were observed when cells were pre-treated with NO-Cbl followed by Apo2L/TRAIL treatment. Treatment for 36 h with NO-Cbl (100 μM) or Apo2L/TRAIL (100 ng/ml) induced 6.2% and 5.4% TUNEL-positive cells, respectively.

[6] = tested on: CMN1 (normal melanocytes); experiment: Sulforhodamine B cell growth assay, normal cells; format: cell-based, human
Protocol: (§1) Cell Culture treatments. Cells were maintained in RPMI or DMEM (Mediatech, Herndon, Va.) containing 5% fetal bovine serum (Hyclone, Logan, Utah) and 1% Antibiotic-Antimycotic (GEBCO, Invitrogen Carlsbad, Calif.) as recommended per the American Type Culture Collection media protocol for each cell line. Cells were maintained in 5% CO2 at 37° C. in a humidified tissue culture incubator. Primary non-tumorigenic […] cell lines (DMN-1 and CMN-1), and human foreskin fibroblasts (HFF; CCF, Cleveland, Ohio) were cultured in DMEM-F12 medium supplemented with 10% FBS. Cells were confirmed as mycoplasma free.
(§2) Sulforhodamine B Cell Growth Assay. Cells were harvested with 0.5% trypsin/0.53 mM EDTA, washed with PBS and resuspended in media containing 10% FBS. Cells were plated in 96-well plates in 0.2-ml aliquots. Cells were allowed to adhere to the plate for 4 h and then NO-Cbl was added in different concentrations to the assay plate. A minimum of four were performed for each treatment. After 16 h, various chemotherapeutic agents including cytokines were added at different concentrations. Growth was monitored by the sulforhodamine B (SRB; Sigma Chemical, St. Louis, Mo.) colorimetric assay. After 36 h, the medium was removed, and the cells were fixed with 10% trichloroacetic acid and stained with SRB. Bound dye was eluted from the cells with 10 mM Tris-HCl (pH 10.5) and absorbance was measured at 570 nm using a Lab systems Multiskan RC 96-well plate reader (Lab Systems Multiscan RC, Thermo Lab Systems, Franklin, Mass.). To quantify the growth of the cells, the experimental absorbance values (Aexp) were compared with initial absorbance readings representing the starting cell numbers (Aini). To determine the starting cell number, an additional 96-well plate was seeded with cells and fixed at the beginning of the experiment. After 5 days growth, the untreated control cells and drug treated cells were fixed and stained with SRB. The absorbances derived from the initial plate and from the untreated cells at the end of the growth period (Afin) were defined as 0% and 100% growth, respectively. The percentage control growth (100%×[Aexp−Aini]/[Afin−Aini]) is expressed as a percentage of untreated controls.
(§3) Anti-tumor effects of NO-Cbl, Apo2L/TRAIL, and the combination iii vitro. NO-Cbl enhances the anti-cellular effects of Apo2L/TRAIL against malignant Apo2L/TRAIL-resistant cell lines. First the antiproliferative effects of three melanoma lines A375, WM9, and WM3211 (previously reported to be resistant to Apo2L/TRAIL) were measured. Although Apo2L/TRAIL was used as the chemotherapeutic agents, a wide range of anti-cancer drugs and techniques would be enhanced by the NO based cobalamin compounds due to their effective inhibition of the cell survival mechanism. Such other chemotherapeutic agents are tested in the following examples. […] The SRB antiproliferative assay, used by the National Cancer Institute (NCI) to evaluate new chemotherapeutic agents was used herein. Median effect analysis was used to analyze drug interactions between NO-Cbl and Apo2L/TRAIL. Cells were pre-treated with NO-Cbl for 16 h followed by Apo2L/TRAIL for 24 h.
(§4) The effects of nitrosylcobalamin (NO-Cbl), Apo2L/TRAIL, and the combination on the proliferation of melanoma cell lines A375, WM9, and WM3211 and normal cell lines CMN1, DMN1, and fibroblasts were observed. Cells were treated with NO-Cbl, Apo2L/TRAIL, or pre-treated with NO-Cbl followed by Apo2L/TRAIL for three days, and growth was measured by the colorimetric sulforhodamine B assay. Data points were generated to represent the mean of four replicates±standard error of the mean (SEM). Synergy between NO-Cbl and Apo2L/TRAIL was determined by median effect analysis, (combination index >1 indicates antagonism, =1 indicates additivity, and <1 indicates synergy). The combination index is represented in FIG. 1 and as the combination index observed at the specified concentrations. […]

[7] = tested on: DMN1 (normal melanocytes); experiment: Sulforhodamine B cell growth assay, normal cells; format: cell-based, human
Protocol: as §1, §2, §3, §4

[8] = tested on: normal fibroblasts; experiment: Sulforhodamine B cell growth assay, normal cells; format: cell-based, human
Protocol: as §1, §2, §3, §4

| Molecule | NF-κB signaling [1] | NF-κB DNA binding activity induced by Apo2L/TRAIL [2] | IκBα phosphorylation induced by Apo2L/TRAIL [3] | tumor regression ([4]; A375 xenografts, nude mice) | tumors smaller than the control tumors ([4]; after 25 days, NO-Cbl 50 mg/kg s.c. twice daily, Apo2L/TRAIL 50 mg/kg s.c. every other day, from day 2) | TUNEL-positive cells [5] | antiproliferative effect on normal cells [6] | antiproliferative effect on normal cells [7] | antiproliferative effect on normal cells [8] |
| --- | --- | --- | --- | --- | --- | --- | --- | --- | --- |
| CC(=O)NC(C(=O)O)C(C)(C)SN=O (racemic) [SNAP, S-nitroso-N-acetyl-D,L-penicillamine, reference compound] | inhibit | inhibited | inhibited | – | – | – | – | – | – |
| Apo2L/TRAIL: tumor necrosis factor-related apoptosis-inducing ligand; trimeric recombinant human Apo2L/TRAIL (Genentech) (protein, UniProt P50591 1-281, looked up) Tumor necrosis factor ligand …: MAMMEVQGGPSLGQTCVLIVIFTVLLQSLCVAVTYVYFTNELKQMQDKYSKSGIACFLKEDDSYWDPNDEESMNSPCWQVKWQLRQLVRKMILRTSEETISTVQEKQQNISPLVRERGPQRVAAHITGTRGRSNTLSSPNSKNEKALGRKINSWESSRSGHSFLSNLHLRNGELVIHEKGFYYIYSQTYFRFQEEIKENTKNDKQMVQYIYKYTSYPDPILLMKSARNSCWSKDAEYGLYSIYQGGIFELKENDRIFVSVTNEHLIDMDHEASFFGAFLVG | – | – | – | Tumor regression was observed | 89.4% | 5.4% | completely resistant | completely resistant | completely resistant |

From patent US20080138280A1, “Composition and Methods For Inhibiting Cell Survival” (The Cleveland Clinic Foundation, priority 2003, published 2008)
